# In PMC3853298 (2013):
# B1: mouse decorin core protein, wild type (residues 45-354) [modified: N-linked glycans (four consensus sites for N-linked glycosylation); N-linked glycans (four consensus sites for N-linked glycosylation)] [mouse] / rat tail type I collagen … (parent complex)
# chain 1: APLALISMCPYRCQCHLRVVQCSDLGLDKVPWDFPPDTTLLDLQNNKITEIKEGAFKNLKDLHTLILVNNKISKISPEAFKPLVKLERLYLSKNQLKELPEKMPRTLQELRVHENEITKLRKSDFNGLNNVLVIELGGNPLKNSGIENGAFQGLKSLSYIRISDTNITAIPQGLPTSLTEVHLDGNKITKVDAPSLKGLINLSKLGLSFNSITVMENGSLANVPHLRELHLDNNKLLRVPAGLAQHKYIQVVYLHNNNISAVGQNDFCRAGHPSRKASYSAVSLYGNPVRYWEIFPNTFRCVYVRSAIQLGNYKAAA
# chain 2: not shown
# chain 3: not shown
# Variants of: B1
# Assay: solid-phase binding assay (immobilized collagen, antibody-linked color reaction); decorin 2.5 µM (highest concentration); WT without collagen background est. 0.05; parent: 0.4; read off a plot
row,response [OD 492],Variant
1,~0.28,"chain 1 Y11A, chain 1 R12A, chain 1 Q14A"
2,~0.18,chain 1 R111E
